B1: CIgG4E1A1(G4S)3 (Fc fusion)
chain 1: GPPCPPCPAPEFLGGPSVFLFPPKPKDTLMISRTPEVTCVVVDVSQEDPEVQFNWYVDGVEVHNAKTKPREEQFNSTYRVVSVLTVLHQDWLNGKEYKCKVSNKGLPSSIEKTISKAKGQPREPQVYTLPPCQEEMTKNQVSLWCLVKGFYPSDIAVEWESNGQPENNYKTTPPVLDSDGSFFLYSRLTVDKSRWQEGNVFSCSVMHEALHNHYTQKSLSLSLGKGGGGSGGGGSGGGGSDVQLQESGGGLVQAGGSLRLSCLASGRTFTTTSGYNMGWFRQAPGKEREFVAGIKWVSGSNRAYAESVKGRFTISRDNAKNTVYLQMNSLKPEDTAVYYCAAATGQSYVPIREYEYVYWGQGTQVTVS
chain 2: GPPCPPCPAPEFLGGPSVFLFPPKPKDTLMISRTPEVTCVVVDVSQEDPEVQFNWYVDGVEVHNAKTKPREEQFNSTYRVVSVLTVLHQDWLNGKEYKCKVSNKGLPSSIEKTISKAKGQPREPQVCTLPPSQEEMTKNQVSLSCAVKGFYPSDIAVEWESNGQPENNYKTTPPVLDSDGSFFLVSRLTVDKSRWQEGNVFSCSVMHEALHNHYTQKSLSLSLGKGGGGSGGGGSGGGGSEVQLLESGGGLVQPGGSLRLSCAASGFTFGNYDMAWVRQAPGKRPEWVSSIDTGGDITHYADSVKGRFTISRDNAKNTLYLQMNSLRPEDTAVYWCATDEEYALGPNEFDYYGQGTLVTVSS
B2: CIgG4E2A1(RS) (Fc fusion)
chain 1: GPPCPPCPAPEFLGGPSVFLFPPKPKDTLMISRTPEVTCVVVDVSQEDPEVQFNWYVDGVEVHNAKTKPREEQFNSTYRVVSVLTVLHQDWLNGKEYKCKVSNKGLPSSIEKTISKAKGQPREPQVYTLPPCQEEMTKNQVSLWCLVKGFYPSDIAVEWESNGQPENNYKTTPPVLDSDGSFFLYSRLTVDKSRWQEGNVFSCSVMHEALHNHYTQKSLSLSLGKRSDVQLQESGGGLVQAGGSLRLSCAASGRTISRYAVGWFRRPPAKEREFIGINWSGGSTTYADSAEGRFIISRDNAKNTVYLQMNSLKPEDTAVYYCAVPSVLVQGGISNPSQYDYWGQGTQVTVS
chain 2: GPPCPPCPAPEFLGGPSVFLFPPKPKDTLMISRTPEVTCVVVDVSQEDPEVQFNWYVDGVEVHNAKTKPREEQFNSTYRVVSVLTVLHQDWLNGKEYKCKVSNKGLPSSIEKTISKAKGQPREPQVCTLPPSQEEMTKNQVSLSCAVKGFYPSDIAVEWESNGQPENNYKTTPPVLDSDGSFFLVSRLTVDKSRWQEGNVFSCSVMHEALHNHYTQKSLSLSLGKRSEVQLLESGGGLVQPGGSLRLSCAASGFTFGNYDMAWVRQAPGKRPEWVSSIDTGGDITHYADSVKGRFTISRDNAKNTLYLQMNSLRPEDTAVYWCATDEEYALGPNEFDYYGQGTLVTVSS
B3: NIgG4E2A1(G4S)2 (Fc fusion)
chain 1: DVQLQESGGGLVQAGGSLRLSCAASGRTISRYAVGWFRRPPAKEREFIGINWSGGSTTYADSAEGRFIISRDNAKNTVYLQMNSLKPEDTAVYYCAVPSVLVQGGISNPSQYDYWGQGTQVTVSGGGGSGGGGSGPPCPPCPAPEFLGGPSVFLFPPKPKDTLMISRTPEVTCVVVDVSQEDPEVQFNWYVDGVEVHNAKTKPREEQFNSTYRVVSVLTVLHQDWLNGKEYKCKVSNKGLPSSIEKTISKAKGQPREPQVYTLPPCQEEMTKNQVSLWCLVKGFYPSDIAVEWESNGQPENNYKTTPPVLDSDGSFFLYSRLTVDKSRWQEGNVFSCSVMHEALHNHYTQKSLSLSLGK
chain 2: EVQLLESGGGLVQPGGSLRLSCAASGFTFGNYDMAWVRQAPGKRPEWVSSIDTGGDITHYADSVKGRFTISRDNAKNTLYLQMNSLRPEDTAVYWCATDEEYALGPNEFDYYGQGTLVTVSSGGGGSGGGGSGPPCPPCPAPEFLGGPSVFLFPPKPKDTLMISRTPEVTCVVVDVSQEDPEVQFNWYVDGVEVHNAKTKPREEQFNSTYRVVSVLTVLHQDWLNGKEYKCKVSNKGLPSSIEKTISKAKGQPREPQVCTLPPSQEEMTKNQVSLSCAVKGFYPSDIAVEWESNGQPENNYKTTPPVLDSDGSFFLVSRLTVDKSRWQEGNVFSCSVMHEALHNHYTQKSLSLSLGK
B4: NIgG4E2A1(G4S)3 (Fc fusion)
chain 1: DVQLQESGGGLVQAGGSLRLSCAASGRTISRYAVGWFRRPPAKEREFIGINWSGGSTTYADSAEGRFIISRDNAKNTVYLQMNSLKPEDTAVYYCAVPSVLVQGGISNPSQYDYWGQGTQVTVSGGGGSGGGGSGGGGSGPPCPPCPAPEFLGGPSVFLFPPKPKDTLMISRTPEVTCVVVDVSQEDPEVQFNWYVDGVEVHNAKTKPREEQFNSTYRVVSVLTVLHQDWLNGKEYKCKVSNKGLPSSIEKTISKAKGQPREPQVYTLPPCQEEMTKNQVSLWCLVKGFYPSDIAVEWESNGQPENNYKTTPPVLDSDGSFFLYSRLTVDKSRWQEGNVFSCSVMHEALHNHYTQKSLSLSLGK
chain 2: EVQLLESGGGLVQPGGSLRLSCAASGFTFGNYDMAWVRQAPGKRPEWVSSIDTGGDITHYADSVKGRFTISRDNAKNTLYLQMNSLRPEDTAVYWCATDEEYALGPNEFDYYGQGTLVTVSSGGGGSGGGGSGGGGSGPPCPPCPAPEFLGGPSVFLFPPKPKDTLMISRTPEVTCVVVDVSQEDPEVQFNWYVDGVEVHNAKTKPREEQFNSTYRVVSVLTVLHQDWLNGKEYKCKVSNKGLPSSIEKTISKAKGQPREPQVCTLPPSQEEMTKNQVSLSCAVKGFYPSDIAVEWESNGQPENNYKTTPPVLDSDGSFFLVSRLTVDKSRWQEGNVFSCSVMHEALHNHYTQKSLSLSLGK
B5: CIgG4E1A1(G4S)2 (Fc fusion)
chain 1: GPPCPPCPAPEFLGGPSVFLFPPKPKDTLMISRTPEVTCVVVDVSQEDPEVQFNWYVDGVEVHNAKTKPREEQFNSTYRVVSVLTVLHQDWLNGKEYKCKVSNKGLPSSIEKTISKAKGQPREPQVYTLPPCQEEMTKNQVSLWCLVKGFYPSDIAVEWESNGQPENNYKTTPPVLDSDGSFFLYSRLTVDKSRWQEGNVFSCSVMHEALHNHYTQKSLSLSLGKGGGGSGGGGSDVQLQESGGGLVQAGGSLRLSCLASGRTFTTTSGYNMGWFRQAPGKEREFVAGIKWVSGSNRAYAESVKGRFTISRDNAKNTVYLQMNSLKPEDTAVYYCAAATGQSYVPIREYEYVYWGQGTQVTVS
chain 2: GPPCPPCPAPEFLGGPSVFLFPPKPKDTLMISRTPEVTCVVVDVSQEDPEVQFNWYVDGVEVHNAKTKPREEQFNSTYRVVSVLTVLHQDWLNGKEYKCKVSNKGLPSSIEKTISKAKGQPREPQVCTLPPSQEEMTKNQVSLSCAVKGFYPSDIAVEWESNGQPENNYKTTPPVLDSDGSFFLVSRLTVDKSRWQEGNVFSCSVMHEALHNHYTQKSLSLSLGKGGGGSGGGGSEVQLLESGGGLVQPGGSLRLSCAASGFTFGNYDMAWVRQAPGKRPEWVSSIDTGGDITHYADSVKGRFTISRDNAKNTLYLQMNSLRPEDTAVYWCATDEEYALGPNEFDYYGQGTLVTVSS
B6: CIgG4E1A1(G4S)1 (Fc fusion)
chain 1: GPPCPPCPAPEFLGGPSVFLFPPKPKDTLMISRTPEVTCVVVDVSQEDPEVQFNWYVDGVEVHNAKTKPREEQFNSTYRVVSVLTVLHQDWLNGKEYKCKVSNKGLPSSIEKTISKAKGQPREPQVYTLPPCQEEMTKNQVSLWCLVKGFYPSDIAVEWESNGQPENNYKTTPPVLDSDGSFFLYSRLTVDKSRWQEGNVFSCSVMHEALHNHYTQKSLSLSLGKGGGGSDVQLQESGGGLVQAGGSLRLSCLASGRTFTTTSGYNMGWFRQAPGKEREFVAGIKWVSGSNRAYAESVKGRFTISRDNAKNTVYLQMNSLKPEDTAVYYCAAATGQSYVPIREYEYVYWGQGTQVTVS
chain 2: GPPCPPCPAPEFLGGPSVFLFPPKPKDTLMISRTPEVTCVVVDVSQEDPEVQFNWYVDGVEVHNAKTKPREEQFNSTYRVVSVLTVLHQDWLNGKEYKCKVSNKGLPSSIEKTISKAKGQPREPQVCTLPPSQEEMTKNQVSLSCAVKGFYPSDIAVEWESNGQPENNYKTTPPVLDSDGSFFLVSRLTVDKSRWQEGNVFSCSVMHEALHNHYTQKSLSLSLGKGGGGSEVQLLESGGGLVQPGGSLRLSCAASGFTFGNYDMAWVRQAPGKRPEWVSSIDTGGDITHYADSVKGRFTISRDNAKNTLYLQMNSLRPEDTAVYWCATDEEYALGPNEFDYYGQGTLVTVSS
B7: NIgG4E2A1(RS) (Fc fusion)
chain 1: DVQLQESGGGLVQAGGSLRLSCAASGRTISRYAVGWFRRPPAKEREFIGINWSGGSTTYADSAEGRFIISRDNAKNTVYLQMNSLKPEDTAVYYCAVPSVLVQGGISNPSQYDYWGQGTQVTVSRSGPPCPPCPAPEFLGGPSVFLFPPKPKDTLMISRTPEVTCVVVDVSQEDPEVQFNWYVDGVEVHNAKTKPREEQFNSTYRVVSVLTVLHQDWLNGKEYKCKVSNKGLPSSIEKTISKAKGQPREPQVYTLPPCQEEMTKNQVSLWCLVKGFYPSDIAVEWESNGQPENNYKTTPPVLDSDGSFFLYSRLTVDKSRWQEGNVFSCSVMHEALHNHYTQKSLSLSLGK
chain 2: EVQLLESGGGLVQPGGSLRLSCAASGFTFGNYDMAWVRQAPGKRPEWVSSIDTGGDITHYADSVKGRFTISRDNAKNTLYLQMNSLRPEDTAVYWCATDEEYALGPNEFDYYGQGTLVTVSSRSGPPCPPCPAPEFLGGPSVFLFPPKPKDTLMISRTPEVTCVVVDVSQEDPEVQFNWYVDGVEVHNAKTKPREEQFNSTYRVVSVLTVLHQDWLNGKEYKCKVSNKGLPSSIEKTISKAKGQPREPQVCTLPPSQEEMTKNQVSLSCAVKGFYPSDIAVEWESNGQPENNYKTTPPVLDSDGSFFLVSRLTVDKSRWQEGNVFSCSVMHEALHNHYTQKSLSLSLGK
B8: NIgG4E2A1(G4S)1 (Fc fusion)
chain 1: DVQLQESGGGLVQAGGSLRLSCAASGRTISRYAVGWFRRPPAKEREFIGINWSGGSTTYADSAEGRFIISRDNAKNTVYLQMNSLKPEDTAVYYCAVPSVLVQGGISNPSQYDYWGQGTQVTVSGGGGSGPPCPPCPAPEFLGGPSVFLFPPKPKDTLMISRTPEVTCVVVDVSQEDPEVQFNWYVDGVEVHNAKTKPREEQFNSTYRVVSVLTVLHQDWLNGKEYKCKVSNKGLPSSIEKTISKAKGQPREPQVYTLPPCQEEMTKNQVSLWCLVKGFYPSDIAVEWESNGQPENNYKTTPPVLDSDGSFFLYSRLTVDKSRWQEGNVFSCSVMHEALHNHYTQKSLSLSLGK
chain 2: EVQLLESGGGLVQPGGSLRLSCAASGFTFGNYDMAWVRQAPGKRPEWVSSIDTGGDITHYADSVKGRFTISRDNAKNTLYLQMNSLRPEDTAVYWCATDEEYALGPNEFDYYGQGTLVTVSSGGGGSGPPCPPCPAPEFLGGPSVFLFPPKPKDTLMISRTPEVTCVVVDVSQEDPEVQFNWYVDGVEVHNAKTKPREEQFNSTYRVVSVLTVLHQDWLNGKEYKCKVSNKGLPSSIEKTISKAKGQPREPQVCTLPPSQEEMTKNQVSLSCAVKGFYPSDIAVEWESNGQPENNYKTTPPVLDSDGSFFLVSRLTVDKSRWQEGNVFSCSVMHEALHNHYTQKSLSLSLGK

Target: mixture of three Der p 2 specific recombinant human IgE clones H10, H12, P4E (human) (UniProt P01854)
Sequence (P01854 other isoform, or with tags, fused parts or gaps): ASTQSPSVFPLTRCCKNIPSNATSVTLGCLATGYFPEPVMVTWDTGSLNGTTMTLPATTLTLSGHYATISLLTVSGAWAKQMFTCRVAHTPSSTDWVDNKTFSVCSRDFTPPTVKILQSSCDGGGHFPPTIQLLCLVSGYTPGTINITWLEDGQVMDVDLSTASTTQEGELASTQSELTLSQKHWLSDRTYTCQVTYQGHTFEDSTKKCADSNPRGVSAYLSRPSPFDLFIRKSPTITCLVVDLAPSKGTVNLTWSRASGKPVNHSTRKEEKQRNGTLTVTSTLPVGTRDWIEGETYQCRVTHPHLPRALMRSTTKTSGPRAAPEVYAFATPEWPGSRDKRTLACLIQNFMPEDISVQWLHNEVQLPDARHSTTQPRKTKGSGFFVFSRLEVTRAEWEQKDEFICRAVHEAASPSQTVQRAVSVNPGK
Assay: RBL-SX38 IgE displacement, FACS

| Binder | EC50 [nM] | Max effect/effect 1 µM [%] |
| --- | --- | --- |
| B1 | 24.1 | 99 |
| B2 |  | 6 |
| B3 | 1.9 | 98 |
| B4 | 2 | 97 |
| B5 | 35.6 | 99 |
| B6 | 96.1 | 95 |
| B7 | 2 | 97 |
| B8 | 2.3 | 95 |

— patent US20250171562A1
